According to patent US20220153832A1 (PIONYR IMMUNOTHERAPEUTICS, published 2022):

T1: N-terminally polyhistidine tagged human MARCO ECD (147-520), recombinant (human, UniProt Q9UEW3 147-520)
T1 construct: also called PI-RG-3000; recombinant human MARCO; not shown: N-terminal polyhistidine tag
T1 sequence: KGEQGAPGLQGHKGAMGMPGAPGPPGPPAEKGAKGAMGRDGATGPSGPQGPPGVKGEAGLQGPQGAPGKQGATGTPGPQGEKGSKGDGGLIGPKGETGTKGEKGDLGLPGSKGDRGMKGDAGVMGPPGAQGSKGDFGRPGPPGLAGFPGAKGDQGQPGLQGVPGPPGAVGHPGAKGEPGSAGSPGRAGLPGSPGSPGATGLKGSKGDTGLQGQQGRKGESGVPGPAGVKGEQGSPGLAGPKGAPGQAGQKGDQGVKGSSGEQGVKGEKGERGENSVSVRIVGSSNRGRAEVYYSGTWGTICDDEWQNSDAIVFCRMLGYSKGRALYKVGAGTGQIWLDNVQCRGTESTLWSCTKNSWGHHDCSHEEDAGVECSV

T2: Human Macrophage Receptor with Collagenous Structure (MARCO), full length, on cells (human, UniProt Q9UEW3 1-520)
T2 construct: the cell type is named under assay; also called huMARCO; HuMARCO
T2 sequence: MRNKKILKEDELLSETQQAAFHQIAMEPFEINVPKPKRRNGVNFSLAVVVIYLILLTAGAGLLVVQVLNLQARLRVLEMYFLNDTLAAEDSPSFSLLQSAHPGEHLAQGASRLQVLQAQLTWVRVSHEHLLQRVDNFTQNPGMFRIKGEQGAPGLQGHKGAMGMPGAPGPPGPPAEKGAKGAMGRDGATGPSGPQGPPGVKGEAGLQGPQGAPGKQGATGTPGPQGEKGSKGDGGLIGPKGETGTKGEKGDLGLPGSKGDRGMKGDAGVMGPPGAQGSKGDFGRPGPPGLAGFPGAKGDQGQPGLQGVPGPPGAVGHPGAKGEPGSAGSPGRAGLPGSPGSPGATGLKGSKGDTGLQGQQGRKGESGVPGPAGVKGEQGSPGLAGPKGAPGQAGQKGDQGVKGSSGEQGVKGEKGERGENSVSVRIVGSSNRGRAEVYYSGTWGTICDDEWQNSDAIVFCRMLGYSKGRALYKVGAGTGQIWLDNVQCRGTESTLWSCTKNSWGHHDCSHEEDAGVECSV

B1: PI-3015-AB (antibody, human IgG1, kappa)
heavy: not shown
light: DIQMTQSPSSLSASVGDRVTITCRASEGISNDLAWYQQKPGKAPKLLIYAASRLQSGVPSRFSGSGSGTDYTLTISSMQPEDFATYYCQQSYKYPLTFGQGTKLEIKRTVAAPSVFIFPPSDEQLKSGTASVVCLLNNFYPREAKVQWKVDNALQSGNSQESVTEQDSKDSTYSLSSTLTLSKADYEKHKVYACEVTHQGLSSPVTKSFNRGEC
B2: PI-3010-AB (antibody, human IgG1, kappa)
heavy: not shown
light: DIQMTQSPASLSTSLGETVSIECLASEGISNDLAWYQQKSGKSPQLLIYAASRLQDGVPSRFSGSGSGTRYSLKISGMQPEDEADYFCQQSYKYPLTFGSGTKLEIKRTVAAPSVFIFPPSDEQLKSGTASVVCLLNNFYPREAKVQWKVDNALQSGNSQESVTEQDSKDSTYSLSSTLTLSKADYEKHKVYACEVTHQGLSSPVTKSFNRGEC

Assays:
[1] = target: T1, N-terminally polyhistidine tagged human …; assay: Biacore; sample oxidized with 1 mM AAPH, 6 hrs, 40 C
Experimental: (PBS)+1 mM AAPH for 6 h, 0.5 and 1.5% H₂O₂ in PBS for 24 h, which was compared to a previous experiment at 40° C. (PBS)+1 mM AAPH for 6 h. Post treatment the samples were analyzed by LC-MS/MS which identified the % modification on isolated peptides derived from the antibody after trypsin digest.
Binding of the stressed samples to recombinant human MARCO was assessed by Biacore.

[2] = target: T2, Human Macrophage Receptor with …; assay: flow cytometry, cells overexpressing human MARCO
Experimental: Supernatants were removed and cell pellets were resuspended in Ca²⁺+ and Mg²⁺+ Dulbecco's phosphate-buffered saline (D-PBS) at 1×10⁶ cells/ml. 100,000 cells/well were plated onto U-bottom 96-well plates for staining and all centrifugation steps were performed at 1500 rpm at 4° C. for 5 min and samples were kept protected from light throughout the protocol. Cells were pelleted and resuspended in 100 μl of Zombie NIR viability dye (BioLegend) prepared by diluting Zombie NIR dimethyl sulfoxide (DMSO) stock 1000-fold in D-PBS. Cells were stained by incubation for 10 min at room temperature (RT) in the dark, followed by quenching the staining reaction with the addition of 100 μl of Staining Medium (D-PBS containing 2% FBS and 2 mM ethylenediaminetetraacetic acid (EDTA). Cells were pelleted and resuspended in 100 μl of the different antibodies and hybridomas supernatants needed for screening and corresponding isotype controls in freshly prepared staining medium, such as PI-M014 and mIgG2b isotype. All mAbs were tested at the final top concentration of 100 nM (15 μg/ml) followed by an 8-point three-fold serial dilution, including 0 mg/ml control. Staining was carried out for 1 hour (hr) on ice, followed by 2 washes in Staining Medium. Cells were then pelleted and resuspended in 100 μl of allophycocyanin (APC)-conjugated goat anti-mouse IgG (Fc-specific) secondary antibody, prepared by 500-fold dilution of the antibody stocks in Staining Medium, and incubated for 30 min on ice. […] Flow cytometry data were analyzed using FlowJo software (version 10.6.1) and data were processed and further analyzed in Microsoft Excel and GraphPad Prism software (version 8). Half-maximal effective concentrations (EC₅₀) were calculated based on geometric mean fluorescence intensities (gMFI). In case when the plates were not able to be analyzed on the cytometer, cells were pelleted after the washes and fixed in 100 μl of 2% paraformaldehyde (PFA), prepared by diluting the 16% (w/v) stock (Thermo Fisher) in DPBS, for 15 min at RT. […]

Binder	Kd [1]	EC50 [2]
B1	1.1 nM	
B2		0.68 nM
